Laboratory results as given in publication doi:10.1101/321604.

Target: mUHRF1 C-terminally tagged with GFP- and 6xHis-tag (mouse) (UniProt Q8VDF2)
Test: MST

UniProt Q8VDF2, sequence (Q8VDF2 whole entry): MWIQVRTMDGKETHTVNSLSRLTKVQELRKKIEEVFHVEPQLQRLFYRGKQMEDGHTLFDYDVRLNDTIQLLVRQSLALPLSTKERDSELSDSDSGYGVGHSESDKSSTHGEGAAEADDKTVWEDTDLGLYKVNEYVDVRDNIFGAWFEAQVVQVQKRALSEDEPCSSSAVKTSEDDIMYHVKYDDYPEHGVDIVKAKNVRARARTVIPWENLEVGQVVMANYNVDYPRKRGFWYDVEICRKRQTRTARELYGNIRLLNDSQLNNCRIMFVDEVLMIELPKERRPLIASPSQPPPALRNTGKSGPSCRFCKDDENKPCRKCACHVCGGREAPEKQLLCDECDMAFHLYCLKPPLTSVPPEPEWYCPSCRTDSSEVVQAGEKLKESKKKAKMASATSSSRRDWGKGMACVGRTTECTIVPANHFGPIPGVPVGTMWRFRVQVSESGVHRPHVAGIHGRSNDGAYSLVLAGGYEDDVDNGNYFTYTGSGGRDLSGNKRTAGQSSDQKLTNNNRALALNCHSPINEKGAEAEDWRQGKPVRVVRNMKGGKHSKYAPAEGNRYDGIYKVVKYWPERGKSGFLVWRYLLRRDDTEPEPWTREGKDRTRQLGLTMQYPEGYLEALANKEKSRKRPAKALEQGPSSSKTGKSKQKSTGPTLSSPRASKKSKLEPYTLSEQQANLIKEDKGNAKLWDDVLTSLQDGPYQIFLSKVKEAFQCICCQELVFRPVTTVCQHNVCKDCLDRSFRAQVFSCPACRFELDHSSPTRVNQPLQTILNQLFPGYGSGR

GST-mDPPA3 wild-type (from UniProt Q8QZY3 1-150) (natural protein)
Kd: 440 nM
